# Numbering of substitutions follows the chain as printed.
# B1: D domain SEQ ID NO: 857 (designed binder)
# chain: MGSWKEFIQRLDAIHYRLWALGGSEAELAAFEKEIAAFESELQAYKGKGNPEVEYLRFVAAFIRFELQAYRHN
# B2: D domain SEQ ID NO: 858 (designed binder)
# chain: B1 chain with K5S, Q9F, Y16S, W19Q, V59I, F62E, F65L, E66K
# B3: D domain SEQ ID NO: 887 (designed binder)
# chain: MGSWTEFWHRLEAIDSRLWALGGSEAELAAFEKEIAAFESELQAYKGKGNPEVESLREHAAHIRVWLQAYRHN
# B4: D domain SEQ ID NO: 901 (designed binder)
# chain: B3 chain with T5M, W8N, E12Q, S16G, S55M, H62A, V65A, W66F
# B5: D domain SEQ ID NO: 889 (designed binder)
# chain: B3 chain with T5S, W8F, H9K, S16R, S55E
# B6: D domain SEQ ID NO: 902 (designed binder)
# chain: B3 chain with T5Y, W8Y, H9K, S16N, W19Y, S55Y, H62A, V65H
# B7: D domain SEQ ID NO: 877 (designed binder)
# chain: B3 chain with T5I, W8Y, H9W, S16Q, S55D, E58V, H62A, V65W
# B8: D domain SEQ ID NO: 890 (designed binder)
# chain: B3 chain with T5Y, W8Q, H9Q, S16T, S55E, V65H
# B9: D domain SEQ ID NO: 897 (designed binder)
# chain: B3 chain with T5S, W8H, H9T, E12D, S16T, S55D, E58R, H62A, V65F
# B10: D domain SEQ ID NO: 896 (designed binder)
# chain: B3 chain with T5V, W8V, H9S, E12Y, S16F, S55A, H62Q, V65D
# B11: D domain SEQ ID NO: 891 (designed binder)
# chain: B3 chain with W8E, H9K, E12H, S16Y, S55D, H62A, V65H
# B12: D domain SEQ ID NO: 913 (designed binder)
# chain: B3 chain with T5S, W8Y, H9Y, E12A, D15E, W19F, S55R, V65R
# B13: D domain SEQ ID NO: 876 (designed binder)
# chain: B3 chain with T5F, W8Y, H9E, E12N, S55K, E58A, H62S, V65T
# B14: D domain SEQ ID NO: 916 (designed binder)
# chain: B3 chain with T5H, H9V, D15E, W19F, E58V, H59Q, V65S
# B15: D domain SEQ ID NO: 880 (designed binder)
# chain: B3 chain with T5V, W8H, H9Y, E12Q, S16A, S55E, E58V, V65K
# B16: D domain SEQ ID NO: 868 (designed binder)
# chain: B3 chain with T5L, W8Y, E12N, E58D, V65E
# B17: D domain SEQ ID NO: 899 (designed binder)
# chain: B3 chain with W8Y, H9Q, E12D, S16T, S55G, E58Q, H59Q, H62Q, V65A
# B18: D domain SEQ ID NO: 892 (designed binder)
# chain: B3 chain with W8H, H9Q, E12D, S16E, S55F, H62K, V65M
# B19: D domain SEQ ID NO: 888 (designed binder)
# chain: B3 chain with W8Q, H9N, E12N, S16H, H62K
# B20: D domain SEQ ID NO: 904 (designed binder)
# chain: B3 chain with T5Y, W8V, H9S, S16D, W19Y, S55M, E58Q, H62A, V65H
# B21: D domain SEQ ID NO: 895 (designed binder)
# chain: B3 chain with T5M, W8V, H9D, E12S, S16R, S55V, H62N, V65Q
# B22: D domain SEQ ID NO: 883 (designed binder)
# chain: B3 chain with T5N, W8F, H9Q, E12N, S16E, S55D, E58Q, H62N, V65W
# B23: D domain SEQ ID NO: 882 (designed binder)
# chain: MGSWNEFMDRLNAIDNRLWALGGSEAELAAFEKEIAAFESELQAYKGKGNPEVENLRKQAASIRLWLQAYRHN
# B24: D domain SEQ ID NO: 910 (designed binder)
# chain: B3 chain with T5Y, W8V, H9I, E12D, D15E, S16D, W19F, S55H, E58V
# B25: D domain SEQ ID NO: 917 (designed binder)
# chain: B3 chain with T5V, W8Y, D15E, S16Q, W19M, H59Q, H62A, V65S
# B26: D domain SEQ ID NO: 879 (designed binder)
# chain: B3 chain with T5E, W8Y, H9Y, S16A, W19F, S55E, E58V, V65D
# B27: D domain SEQ ID NO: 909 (designed binder)
# chain: B3 chain with T5V, W8V, H9T, D15E, S16D, W19F, S55H, E58A, V65H
# B28: D domain SEQ ID NO: 908 (designed binder)
# chain: MGSWYEFMYRLDAIEYRLFALGGSEAELAAFEKEIAAFESELQAYKGKGNPEVESLRIHAAMIREWLQAYRHN
# B29: D domain SEQ ID NO: 903 (designed binder)
# chain: B3 chain with T5Y, W8Y, H9Y, S16N, W19I, S55V, H62K, V65E
# B30: D domain SEQ ID NO: 893 (designed binder)
# chain: B3 chain with T5L, W8S, H9Q, E12T, S55N, H62K, V65N
# B31: D domain SEQ ID NO: 884 (designed binder)
# chain: B3 chain with T5Y, W8V, H9V, E12F, S16E, V65S
# B32: D domain SEQ ID NO: 886 (designed binder)
# chain: B3 chain with T5Y, W8R, H9A, E12L, S16E, S55H, V65N, W66F
# B33: D domain SEQ ID NO: 859 (designed binder)
# chain: B23 chain with N5F, M8Y, N16A, K58V, Q59H, S62A, L65E
# B34: D domain SEQ ID NO: 914 (designed binder)
# chain: B28 chain with M8Y, Y9L, D12S, Y16D, I58V, H59Q, M62H, E65T
# B35: D domain SEQ ID NO: 906 (designed binder)
# chain: MGSWFEFFERLAAIEDRLWALGGSEAELAAFEKEIAAFESELQAYKGKGNPEVESLRVHAAAIRAFLQAYRHN
# B36: D domain SEQ ID NO: 912 (designed binder)
# chain: B28 chain with Y5S, M8V, Y9H, Y16V, S55E, I58Y, M62K, E65S
# B37: D domain SEQ ID NO: 898 (designed binder)
# chain: B3 chain with T5L, W8H, H9S, E12D, S16T, S55K, H62A, V65H, W66Y
# B38: D domain SEQ ID NO: 911 (designed binder)
# chain: B28 chain with Y5V, M8V, Y9E, Y16F, S55K, I58N, M62H, E65S
# B39: D domain SEQ ID NO: 881 (designed binder)
# chain: B23 chain with N5V, M8V, D9G, N16A, N55E, K58H, Q59H, S62E, L65N
# B40: D domain SEQ ID NO: 894 (designed binder)
# chain: B3 chain with W8V, H9N, E12Y, S55G, E58T, H62K, V65H
# B41: D domain SEQ ID NO: 918 (designed binder)
# chain: B28 chain with Y5V, M8Y, Y9E, D12N, F19E, I58E, M62Y, E65Q
# B42: D domain SEQ ID NO: 907 (designed binder)
# chain: B28 chain with Y5I, M8K, Y16W, F19E, M62A, E65T
# B43: D domain SEQ ID NO: 878 (designed binder)
# chain: B35 chain with F5S, F8V, E9K, A12D, E15D, D16Q, F66W
# B44: D domain SEQ ID NO: 885 (designed binder)
# chain: B3 chain with T5Y, W8Y, H9L, E12D, S16H, S55M, V65K
# B45: D domain SEQ ID NO: 905 (designed binder)
# chain: B3 chain with T5Y, W8S, D15E, S16D, W19F, S55P, H62Y, V65H
# B46: D domain SEQ ID NO: 915 (designed binder)
# chain: B28 chain with M8Y, Y9D, Y16D, I58D, H59Q, M62Y, E65T
# B47: D domain SEQ ID NO: 919 (designed binder)
# chain: MGSWVEFYHRLDAIFDRLDALGGSEAELAAFEKEIAAFESELQAYKGKGNPEVEELRANAAGIRSWLQAYRHN
# B48: D domain SEQ ID NO: 920 (designed binder)
# chain: B23 chain with N5S, M8T, N12F, D15E, N16D, W19L, N55D, K58M, Q59H
# B49: D domain SEQ ID NO: 921 (designed binder)
# chain: MGSWHEFYDRLYAIWDRLDALGGSEAELAAFEKEIAAFESELQAYKGKGNPEVEGLRNAAAVIRIFLQAYRHN
# B50: D domain SEQ ID NO: 922 (designed binder)
# chain: MGSWFEFSNRLYAIWHRLTALGGSEAELAAFEKEIAAFESELQAYKGKGNPEVESLRTQAAFIRILLQAYRHN
# B51: D domain SEQ ID NO: 851 (designed binder)
# chain: MGSWHEFYDRLDAIYFRLWALGGSEAELAAFEKEIAAFESELQAYKGKGNPEVELLRLLAAEIRKELQAYRHN
# B52: D domain SEQ ID NO: 900 (designed binder)
# chain: B51 chain with H5A, Y8S, D12N, Y15D, F16Q, L55I, L58E, L59H, E66F
# B53: D domain SEQ ID NO: 854 (designed binder)
# chain: MGSWVEFSGRLIAIDNRLWALGGSEAELAAFEKEIAAFESELQAYKGKGNPEVEYLRMWAAEIRYILQAYRHN
# B54: D domain SEQ ID NO: 856 (designed binder)
# chain: B1 chain with K5H, I8M, Q9E, D12I, H15D, Y16G, F65D, E66V
# B55: D domain SEQ ID NO: 853 (designed binder)
# chain: B53 chain with V5M, S8F, G9D, I12V, N16E, Y65F, I66L
# B56: D domain SEQ ID NO: 855 (designed binder)
# chain: B53 chain with S8H, G9H, I12F, N16E, W59V
# B57: D domain SEQ ID NO: 852 (designed binder)
# chain: B53 chain with V5H, S8I, G9T, I12E, N16Q, M58F, Y65F
# Target: T1, P26 (human, UniProt P02771 381-609, limits assumed)
# T1 construct: also called AFP p26
# T1 sequence: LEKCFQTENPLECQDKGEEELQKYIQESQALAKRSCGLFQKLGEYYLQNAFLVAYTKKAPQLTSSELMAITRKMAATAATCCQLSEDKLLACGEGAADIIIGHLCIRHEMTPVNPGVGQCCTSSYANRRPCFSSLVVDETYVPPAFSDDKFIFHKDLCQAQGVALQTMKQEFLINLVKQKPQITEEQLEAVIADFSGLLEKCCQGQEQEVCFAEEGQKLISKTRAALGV
# Test: ELISA, format not described
# Design: unit not given here
row,Binder,ELISA_avg
1,B1,18.4
2,B2,28.3
3,B3,13.2
4,B4,33.4
5,B5,30.2
6,B6,30.8
7,B7,9.4
8,B8,27.3
9,B9,23.5
10,B10,29
11,B11,17.1
12,B12,30.8
13,B13,27.1
14,B14,26.9
15,B15,14.8
16,B16,19.2
17,B17,29.7
18,B18,24.4
19,B19,30.5

row,Binder,ELISA_avg
1,B20,33.1
2,B21,32.1
3,B22,28.7
4,B23,10
5,B24,30.1
6,B25,28.5
7,B26,30.3
8,B27,11.7
9,B28,19.4
10,B29,29.6
11,B30,30.4
12,B31,18.2
13,B32,20.9
14,B33,5.92
15,B34,27.4
16,B35,20.3
17,B36,16.9
18,B37,30.8
19,B38,23.8

row,Binder,ELISA_avg
1,B39,26
2,B40,16.7
3,B41,28.7
4,B42,18.3
5,B43,27
6,B44,16
7,B45,26
8,B46,31.9
9,B47,20
10,B48,25.4
11,B49,22.9
12,B50,15.2
13,B51,9.6
14,B52,25.3
15,B53,5.28
16,B54,17.9
17,B55,18.6
18,B56,21.4
19,B57,16.9

# Source: US20250026849A1 (ARCELLX, published 2025)
